From patent publication US20080207488A1, “Method for Detecting Peptides Comprising a Cross-B Structure” (priority 2005, published 2008)

Tests used:
[1] = target: tissue-type plasminogen activator (tPA) (human) (UniProt P00750); test: cell-based or functional assay
[2] = target: human coagulation factor VIII isolated from healthy volunteers (Aafact) (human) (UniProt P00451); test: ELISA, therapeutic coated, tPA concentration series, one-site binding fit
Chain of human coagulation factor VIII isolated from healthy volunteers (Aafact) (human) (P00451 20-2351): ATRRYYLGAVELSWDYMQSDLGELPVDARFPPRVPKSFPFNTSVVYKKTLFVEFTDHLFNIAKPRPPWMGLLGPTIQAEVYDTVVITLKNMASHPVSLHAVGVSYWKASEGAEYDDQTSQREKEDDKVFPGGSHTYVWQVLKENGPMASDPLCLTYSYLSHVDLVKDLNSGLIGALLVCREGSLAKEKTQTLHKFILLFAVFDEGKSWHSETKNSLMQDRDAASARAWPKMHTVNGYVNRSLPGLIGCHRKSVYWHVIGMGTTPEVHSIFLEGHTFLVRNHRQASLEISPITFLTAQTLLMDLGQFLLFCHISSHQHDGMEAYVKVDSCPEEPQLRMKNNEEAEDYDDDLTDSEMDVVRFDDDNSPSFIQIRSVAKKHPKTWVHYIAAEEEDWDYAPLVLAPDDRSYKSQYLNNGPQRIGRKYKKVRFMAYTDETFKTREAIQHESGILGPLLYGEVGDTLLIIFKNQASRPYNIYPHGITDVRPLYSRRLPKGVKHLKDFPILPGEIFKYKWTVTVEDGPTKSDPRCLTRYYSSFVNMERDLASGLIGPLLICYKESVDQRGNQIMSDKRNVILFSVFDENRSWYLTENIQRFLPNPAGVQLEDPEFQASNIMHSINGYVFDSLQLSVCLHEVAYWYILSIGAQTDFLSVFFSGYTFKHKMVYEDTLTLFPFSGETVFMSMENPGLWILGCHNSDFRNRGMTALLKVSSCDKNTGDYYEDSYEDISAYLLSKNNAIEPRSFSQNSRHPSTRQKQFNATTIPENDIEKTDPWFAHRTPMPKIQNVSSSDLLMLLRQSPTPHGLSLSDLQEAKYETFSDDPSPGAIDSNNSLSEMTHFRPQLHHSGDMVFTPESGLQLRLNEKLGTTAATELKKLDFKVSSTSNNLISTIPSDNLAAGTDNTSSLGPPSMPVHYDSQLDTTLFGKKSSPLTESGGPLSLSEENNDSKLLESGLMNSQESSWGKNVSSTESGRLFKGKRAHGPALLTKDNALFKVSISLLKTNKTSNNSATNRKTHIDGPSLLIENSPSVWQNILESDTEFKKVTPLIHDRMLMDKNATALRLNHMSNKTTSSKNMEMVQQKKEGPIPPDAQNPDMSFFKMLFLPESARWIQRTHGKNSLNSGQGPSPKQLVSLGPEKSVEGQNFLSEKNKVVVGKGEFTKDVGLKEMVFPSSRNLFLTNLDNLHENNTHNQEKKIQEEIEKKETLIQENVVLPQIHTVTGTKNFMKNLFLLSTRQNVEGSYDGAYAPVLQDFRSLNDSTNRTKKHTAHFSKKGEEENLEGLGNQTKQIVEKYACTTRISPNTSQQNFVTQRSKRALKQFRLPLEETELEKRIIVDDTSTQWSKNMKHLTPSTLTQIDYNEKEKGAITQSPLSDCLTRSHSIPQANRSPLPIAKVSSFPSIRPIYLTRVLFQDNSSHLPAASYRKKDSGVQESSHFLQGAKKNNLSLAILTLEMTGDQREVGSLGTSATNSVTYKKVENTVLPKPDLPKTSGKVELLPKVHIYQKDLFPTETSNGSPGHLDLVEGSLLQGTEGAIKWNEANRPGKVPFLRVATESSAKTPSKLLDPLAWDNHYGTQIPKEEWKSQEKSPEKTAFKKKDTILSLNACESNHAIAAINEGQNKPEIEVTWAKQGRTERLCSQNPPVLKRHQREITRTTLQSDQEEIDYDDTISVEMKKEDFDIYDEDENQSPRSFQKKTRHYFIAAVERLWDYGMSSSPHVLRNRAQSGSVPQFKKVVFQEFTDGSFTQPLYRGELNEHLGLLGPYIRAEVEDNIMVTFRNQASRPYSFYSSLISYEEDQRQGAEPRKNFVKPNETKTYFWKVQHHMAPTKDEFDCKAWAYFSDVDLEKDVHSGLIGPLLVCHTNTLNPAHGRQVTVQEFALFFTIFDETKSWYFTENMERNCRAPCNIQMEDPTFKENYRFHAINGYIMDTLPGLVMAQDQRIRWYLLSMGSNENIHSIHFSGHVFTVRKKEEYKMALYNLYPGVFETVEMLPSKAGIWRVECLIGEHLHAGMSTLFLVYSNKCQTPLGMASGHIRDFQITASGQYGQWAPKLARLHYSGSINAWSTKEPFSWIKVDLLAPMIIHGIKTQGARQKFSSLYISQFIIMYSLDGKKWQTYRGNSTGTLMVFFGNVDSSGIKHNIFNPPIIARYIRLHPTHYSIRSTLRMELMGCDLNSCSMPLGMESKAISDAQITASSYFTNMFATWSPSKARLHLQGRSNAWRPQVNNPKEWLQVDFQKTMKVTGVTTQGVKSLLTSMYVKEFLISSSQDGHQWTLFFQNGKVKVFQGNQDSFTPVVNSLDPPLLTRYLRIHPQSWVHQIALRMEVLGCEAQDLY

## rapid acting human insulin analogue (NovoRapid Flexpen) (from UniProt P01308 90-110; P01308 25-54) (ligand)
[1]
  tPA activation, Max. Activation (%): 70.9%

## human-murine chimeric monoclonal antibody (Remicade-infliximab)
[1]
  tPA activation, Max. Activation (%): 0%

## human coagulation factor VIII isolated from healthy volunteers (Aafact) (from UniProt P00451 20-2351)
[1]
  tPA activation, Max. Activation (%): 4.22%

## human glucagon (Glucagen) (from UniProt P01275 53-81) (peptide)
[1]
  tPA activation, Max. Activation (%): 11.2%

## Etanercept (Enbrel) (Fc fusion)
[1]
  tPA activation, Max. Activation (%): 0%

## tissue-type plasminogen activator (tPA) (from UniProt P00750 36-562) (enzyme)
[2]
  Bmax (OD450 nm): 0.54 OD450 nm
  Kd: 230 nM

## Epoietin Alfa (from UniProt P01588 28-192) (ligand)
[1]
  tPA activation, Max. Activation (%): 0%
